We go through two molecules from patent publication US20100150950A1, “HUMAN ANTIBODIES THAT BIND CD70 AND USES THEREOF” (Medarex, Inc., priority 2006, published 2010).

Assay [1] relates to monkey rhesus CD70+ B lymphoma cell line LCL8664. The assay can be described thus: FACS cross-reactivity with rhesus B lymphoma cells. It counts as binding. To be noted: antibody 1 μg/ml. The protocol:
FACS analysis was also employed to access the ability of the anti-CD70 antibody 69A7 cross reacting with the monkey rhesus CD70+B lymphoma cell line, LCL8664 (ATCC#: CRL-1805). Binding of the HuMAb 69A7 anti-CD70 human monoclonal antibody was assessed by incubating 1×10^5 cells with 69A7 at a concentration of 1 μg/ml. The cells were washed and binding was detected with a FITC-labeled anti-human IgG Ab. An isotype control antibody was used as a negative control. Flow cytometric analyses were performed using a FACSCalibur flow cytometry (Becton Dickinson, San Jose, Calif.).

Assay [2] has as its system 786-O human renal cancer cell line. The assay can be described thus: Internalization by immunofluorescence staining. Type of assay: cell-based. The protocol: The 786-O human renal cancer cell line was used to test the internalization of HuMab anti-CD70 antibodies 69A7 and 2H5 upon binding to the cells using immuno-fluorescence staining. 786-O cells (1×10^4 cells per 100 μl per well in a 96-well plate) were harvested from a tissue culture flask by treatment with 0.25% Trypsin/EDTA, then incubated with each of the HuMab anti-CD70 antibodies at 5 μg/ml in FACS buffer (PBS+5% FBS, media) for 30 minutes on ice. A human IgG1 isotype control was used as a negative control. Following 2 washes with media, the cells were re-suspended in the media (100 μl per well) and then incubated with goat anti-human secondary antibody conjugated with PE (Jackson ImmunoResearch Lab) at 1:100 dilution on ice for 30 minutes. The cells were either immediately imaged for morphology and immunofluorescence intensity under a fluorescent microscope (Nikon) at 0 min or incubated at 37° C. for various times. […] Similar results were also obtained with FITC-direct conjugated HuMab anti-CD70 antibodies in the assays. […] At the 120 min timepoint, membrane fluorescence was not apparent, but instead appeared to be present in intracellular compartments.

The target in assay [3] is T1, CD70+ renal carcinoma 786-O cells (Homo sapiens, UniProt P32970).
T1 construct: natively expressing CD70+ human cancer cell line 786-0 cells; endogenous in cells; host or cells: 786-O (ATCC CRL-1932), A-498 (HTB-44), ACHN (CRL-1611), Caki-1 (HTB-46), Caki-2 (HTB-47)
T1 sequence (P32970 1-193): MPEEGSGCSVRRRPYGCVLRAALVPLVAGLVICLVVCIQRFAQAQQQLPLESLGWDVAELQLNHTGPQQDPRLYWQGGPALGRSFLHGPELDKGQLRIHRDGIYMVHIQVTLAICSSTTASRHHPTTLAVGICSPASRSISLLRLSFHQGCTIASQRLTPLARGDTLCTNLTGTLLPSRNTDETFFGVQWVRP
The assay can be described thus: Blocking of mouse anti-CD70 antibody BU-69 binding. To be noted: BU-69 1 μg/ml; 69A7 1, 5 or 10 μg/ml. Here is the method: In this experiment, the HuMAb anti-CD70 antibody 69A7 was tested for its ability to block binding of a known mouse anti-CD70 antibody to CD70+renal carcinoma 786-O cells. 786-O cells were incubated with the mouse anti-CD70 antibody BU-69 (Ancell, Bayport, Minn.) at 1 μg/ml and the HuMAb 69A7 at 1, 5 or 10 μg/ml for 20 minutes on ice. IgG1 and IgG2 isotype control antibodies were used as negative controls. The cells were washed twice and binding was detected with a FITC-labeled anti-human IgG Ab. Flow cytometric analyses were performed using a FACSCalibur flow cytometry (Becton Dickinson, San Jose, Calif.).

Assay [4] concerns CD70 costimulation of human CD3+ T cells. The assay can be described thus: CD70 co-stimulated human T cell proliferation and IFN-γ secretion. Type of assay: cell-based. As to conditions: CHO-S/mCD32/CD70 cells + anti-hCD3, 3 days. The protocol:
In this experiment, the HuMAb anti-CD70 antibody 2H5 was tested for inhibition of inflammatory responses. CHO-S cells stably transfected with mouse CD32 (CHO-S/mCD32 cells) were transiently transfected with a full length human CD70 construct (CHO-S/mCD32/CD70 cells). Surface expression was confirmed by flow cytometry using 2A5 and PE conjugated anti-human IgG secondary Ab (data not shown). RosetteSep® Human T Cell Enrichment Kit (Cat# 15061; StemCell Technologies Inc) purified human peripheral blood CD3^+ T cells were stimulated in vitro at 1×10^6/well with 1×10^5 CHO-S/mCD32 or CHO-S/mCD32/CD70 cells/well, 1μg/ml anti-hCD3 (clone OKT3; BD Bioscience) and serial dilutions of either the HuMAb 2H5 or non-fucosylated 2H5 (2H5 NF) in triplicate wells of a 96 well plate. After 3 days supernatant aliquots were collected and interferon-gamma (INF-γ) secretion was measured by a quantitative ELISA kit (BD Biosciences). The plates were pulsed with 1 μCi/ml of ^3H-thymidine, incubated for 8 hours, cells were harvested and ^3H-thymidine incorporation was read on a Trilux® 1450 Microbeta Counter (Wallac, Inc.). An IgG1 isotype control antibody was used as a negative control. […] Data also show 2H5 inhibition is specific to CD70 costimulation as 2H5 had no effect on anti-CD3^+ CHO-S/mCD32 mediated proliferation. […]

B1: anti-CD70 human monoclonal antibody 69A7 (antibody, V domains shown)
VH: QVQLQESGPGLVKPSETLSLTCTVSGGSVSSDYYYWSWIRQPPGKGLEWLGYIYYSGSTNYNPSLKSRVTISVDTSKNQFSLKLRSVTTADTAVYYCARGDGDYGGNCFDYWGQGTLVTVSS
VL: EIVLTQSPATLSLSPGERATLSCRASQSVSSYLAWYQQKPGQAPRLLIFDASNRATGIPARFSGSGSGTDFTLTISSLEPEDFAVYYCQQRSNWPLTFGGGTKVEIK
notes: Human IgG from hybridoma; also called HuMAb 69A7; FITC-conjugated 69A7
Turning to B1, the “cross-reactivity with monkey CD70+ B lymphoma cells” value in assay [1] was “cross-reacts”. In addition, the membrane fluorescence intensity entry in assay [2] (30 min incubation at 37° C.) was “significantly decreased”. Further, the membrane fluorescence entry in assay [2] (120 min timepoint) was “not apparent”. Further, in assay [2] (antibody 5 μg/ml, 37° C.), the internalization upon binding result is “specifically internalized”. Further, the “blocking of mouse anti-CD70 antibody BU-69 binding” value in assay [3] is reported as “blocks binding”.

B2: 2H5 NF: 2H5 HuMAb lacking fucosyl residues, expressed in CHO cell line Ms704-PF (antibody, V domains shown)
VH: QVQLVESGGGVVQPGRSLRLSCAASGFTFSSYIMHWVRQAPGKGLEWVAVISYDGRNKYYADSVKGRFTISRDNSKNTLYLQMNSLRAEDTAVYYCARDTDGYDFDYWGQGTLVTVSS
VL: EIVLTQSPATLSLSPGERATLSCRASQSVSSYLAWYQQKPGQAPRLLIYDASNRATGIPARFSGSGSGTDFTLTISSLEPEDFAVYYCQQRTNWPLTFGGGTKVEIK
In the case of B2, in assay [4], the “CD70 co-stimulated INF-γ secretion” value is given as “completely inhibited” and the CD70 co-stimulated proliferation result is reported as “completely inhibited”.
